Laboratory results: paper PMC5814804 (Nucleic Acids Research, 2018)

B1: Thermotoga maritima TsaD (natural protein, UniProt Q9WXZ2 1-327, looked up)
chain: MRVLGIETSCDETAVAVLDDGKNVVVNFTVSQIEVHQKFGGVVPEVAARHHLKNLPILLKKAFEKVPPETVDVVAATYGPGLIGALLVGLSAAKGLAISLEKPFVGVNHVEAHVQAVFLANPDLKPPLVVLMVSGGHTQLMKVDEDYSMEVLGETLDDSAGEAFDKVARLLGLGYPGGPVIDRVAKKGDPEKYSFPRPMLDDDSYNFSFAGLKTSVLYFLQREKGYKVEDVAASFQKAVVDILVEKTFRLARNLGIRKIAFVGGVAANSMLREEVRKRAERWNYEVFFPPLELCTDNALMVAKAGYEKAKRGMFSPLSLNADPNLNV
B2: Thermotoga maritima TsaB (natural protein, UniProt Q9WZX7 1-206, looked up)
chain: MNVLALDTSQRIRIGLRKGEDLFEISYTGEKKHAEILPVVVKKLLDELDLKVKDLDVVGVGIGPGGLTGLRVGIATVVGLVSPYDIPVAPLNSFEMTAKSCPADGVVLVARRARKGYHYCAVYLKDKGLNPLKEPSVVSDEELEEITKEFSPKIVLKDDLLISPAVLVEESERLFREKKTIHYYEIEPLYLQKSIAELNWEKKKRG

Columns and labels:
[1] = target: the molecule itself; experiment: SEC
[2] = target: B1; experiment: native gel or EMSA

Binder: B1
- stoichiometry N [1]: 2

Binder: B2
- binding result [2]: binds
- stoichiometry N [1]: 2
